From PMC10879843

Target: metabotropic glutamate receptor 5 (mouse (endogenous in brain cortex)) (UniProt Q3UVX5)
Experiment: co-IP; mGluR5 immunoprecipitated with rabbit anti-mGluR5 on protein G magnetic beads from brain cortex lysates of 1 month-old WT and SPKO (synaptopodin knockout) mice; 20 mM Tris-HCl pH 7.4, 5 mM EDTA, 100 mM NaCl, 1% Triton X-100; overnight at 4 °C; immunoblot with anti-pan-Homer

Chain of UniProt Q3UVX5 (Q3UVX5 19-1203): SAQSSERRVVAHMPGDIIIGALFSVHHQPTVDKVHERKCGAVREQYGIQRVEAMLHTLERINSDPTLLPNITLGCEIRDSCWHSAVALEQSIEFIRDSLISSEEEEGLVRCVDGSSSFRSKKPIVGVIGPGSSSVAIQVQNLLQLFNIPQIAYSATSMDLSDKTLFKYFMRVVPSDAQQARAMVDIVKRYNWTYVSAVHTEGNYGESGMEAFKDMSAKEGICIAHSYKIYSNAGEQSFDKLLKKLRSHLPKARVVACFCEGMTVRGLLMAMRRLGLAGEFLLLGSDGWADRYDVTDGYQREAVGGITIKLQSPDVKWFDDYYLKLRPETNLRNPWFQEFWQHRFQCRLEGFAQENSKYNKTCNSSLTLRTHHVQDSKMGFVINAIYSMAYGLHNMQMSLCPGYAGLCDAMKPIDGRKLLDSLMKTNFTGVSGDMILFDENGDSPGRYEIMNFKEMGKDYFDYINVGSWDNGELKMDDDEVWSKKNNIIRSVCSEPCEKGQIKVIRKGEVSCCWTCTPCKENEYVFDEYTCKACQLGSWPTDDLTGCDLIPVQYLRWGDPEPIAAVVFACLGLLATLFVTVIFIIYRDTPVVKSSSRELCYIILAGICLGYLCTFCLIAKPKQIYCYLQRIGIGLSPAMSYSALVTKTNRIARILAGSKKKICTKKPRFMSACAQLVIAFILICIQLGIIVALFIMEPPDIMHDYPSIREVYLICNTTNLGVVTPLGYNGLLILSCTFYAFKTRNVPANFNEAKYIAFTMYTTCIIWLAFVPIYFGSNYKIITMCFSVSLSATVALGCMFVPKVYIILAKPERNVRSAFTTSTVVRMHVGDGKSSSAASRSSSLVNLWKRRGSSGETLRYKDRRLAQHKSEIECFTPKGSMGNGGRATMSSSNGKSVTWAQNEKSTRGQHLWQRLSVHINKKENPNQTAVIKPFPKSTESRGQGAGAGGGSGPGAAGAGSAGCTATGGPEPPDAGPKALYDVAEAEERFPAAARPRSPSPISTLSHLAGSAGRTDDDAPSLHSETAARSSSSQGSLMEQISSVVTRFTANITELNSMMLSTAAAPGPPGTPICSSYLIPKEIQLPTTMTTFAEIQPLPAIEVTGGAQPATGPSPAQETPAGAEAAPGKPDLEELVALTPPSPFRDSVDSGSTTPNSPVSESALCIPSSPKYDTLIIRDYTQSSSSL

coprecipitated Homer, SPKO/WT ratio: 0.4
Substance: Homer (long form) (from UniProt Q9Z2Y3 1-366) (natural protein)
